# Experimental data: patent US20260184782A1 (TWIST BIOSCIENCE, published 2026)
# Residue numbers refer to the chain shown, from its start.
# T1: recombinant human TIGIT (human, UniProt Q495A1 22-141, limits assumed)
# T1 construct: recombinant human TIGIT used in Carterra SPR; also called hTIGIT
# T1 sequence (looked up): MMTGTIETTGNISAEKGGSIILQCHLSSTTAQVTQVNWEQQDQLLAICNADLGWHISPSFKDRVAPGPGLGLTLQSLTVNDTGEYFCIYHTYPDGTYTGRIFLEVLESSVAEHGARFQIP
# B1: TIGIT-SC12 (Fc fusion)
# VHH: EVQLVESGGGLVQPGGSLRLSCAASGRTFSAYGMGWFRQAPGKEREFVAAITPSSRTTYYADSVKGRFTISADNSKNTAYLQMNSLKPEDTAVYYCAKDNWGEWLMPWWGQGTLVTVSS
# notes: VHH-Fc fusion in assay
# B2: TIGIT-SC56 (Fc fusion)
# VHH: EVQLVESGGGLVQPGGSLRLSCAASGNTFSGGFMGWFRQAPGKEREWVASVLRGGYTWYADSVKGRFTISADNSKNTAYLQMNSLKPEDTAVYYCAHSKGYNWFDPWGQGTLVTVSS
# notes: VHH-Fc fusion in assay
# B3: TIGIT-SC102 (Fc fusion)
# VHH: EVQLVESGGGLVQPGGSLRLSCAASGSTFSKHHAMGWFRQAPGKEREFVAAIRWSGGNTYYADSVKGRFTISADNSKNTAYLQMNSLKPEDTAVYYCARWYSSSGDYYYMDVWGQGTLVTVSS
# notes: VHH-Fc fusion in assay
# B4: TIGIT-SC89 (Fc fusion)
# VHH: EVQLVESGGGLVQPGGSLRLSCAASGSMSSINAMGWFRQAPGKEREFVAAINYEGDRTYYADSVKGRFTISADNSKNTAYLQMNSLKPEDTAVYYCARWTRGLVSGTYYYYMDVWGQGTLVTVSS
# notes: VHH-Fc fusion in assay
# B5: TIGIT-SC90 (Fc fusion)
# VHH: EVQLVESGGGLVQPGGSLRLSCAASGDTFSSKAMGWFRQAPGKEREFVAAIRWSVSSTYYADSVKGRFTISADNSKNTAYLQMNSLKPEDTAVYYCARWTRGLVSGTYYYYMDVWGQGTLVTVSS
# notes: VHH-Fc fusion in assay
# B6: TIGIT-SC161 (Fc fusion)
# VHH: EVQLVESGGGLVQPGGSLRLSCAASGFTFSPSWMGWFRQAPGKEREWVASVLRGGYTWYADSVKGRFTISADNSKNTAYLQMNSLKPEDTAVYYCTTDRAIGVRPLFDHWGQGTLVTVSS
# notes: VHH-Fc fusion in assay
# B7: TIGIT-SC87 (Fc fusion)
# VHH: EVQLVESGGGLVQPGGSLRLSCAASGSIDTINTMGWFRQAPGKEREFVAAITPSSRTTYYVDSVKGRFTISADNSKNTAYLQMNSLKPEDTAVYYCARWGGVTFGGVYPLEYWGQGTLVTVSS
# notes: VHH-Fc fusion in assay
# B8: TIGIT-SC28 (Fc fusion)
# VHH: EVQLVESGGGLVQPGGSLRLSCAASGRTFSTDAMGWFRQAPGKEREFVATINWKDGFTYYADSVKGRFTISADNSKNTAYLQMNSLKPEDTAVYYCAGVGHDYGDYLFDYWGQGTLVTVSS
# notes: VHH-Fc fusion in assay
# B9: TIGIT-SC147 (Fc fusion)
# VHH: EVQLVESGGGLVQPGGSLRLSCAASGTITSAVFMGWFRQAPGKEREFVAAVIWRGGSLKSYADSVKGRFTISADNSKNTAYLQMNSLKPEDTAVYYCAKLAVAGNYYYYGMDVWGQGTLVTVSS
# notes: VHH-Fc fusion in assay
# B10: TIGIT-SC80 (Fc fusion)
# VHH: EVQLVESGGGLVQPGGSLRLSCAASGNIPPINAMGWFRQAPGKEREFVAAINYSGGSTYYADSVKGRFTISADNSKNTAYLQMNSLKPEDTAVYYCARWHYDILTGYYWLDSWGQGTLVTVSS
# notes: VHH-Fc fusion in assay
# B11: TIGIT-SC99 (Fc fusion)
# VHH: EVQLVESGGGLVQPGGSLRLSCAASGSIFSMNTMGWFRQAPGKEREFVGAINWSGGSTIYADSVKGRFTISADNSKNTAYLQMNSLKPEDTAVYYCARWDYDILTNYYWLEYWGQGTLVTVSS
# notes: VHH-Fc fusion in assay
# B12: TIGIT-SC79 (Fc fusion)
# VHH: B10 VHH with N27S, P29L, P30S, A33T, N52T, Y53S, S54A, S57T
# notes: VHH-Fc fusion in assay
# Target: T1, recombinant human TIGIT
# Test: SPR Carterra, average
# Protocol: Binding affinities of VHH-Fc proteins to recombinant human TIGIT were measured by SPR using a Carterra instrument (Table 10A). […] Average values reported from measurements from 1-2 samples.
Binder,Kd [nM],koff [s⁻¹],kon [M⁻¹ s⁻¹]
B1,22.8,0.0049,221000
B2,26.9,0.000801,29800
B3,33.5,0.00146,43500
B4,30.8,0.00294,106000
B5,59.5,0.00301,50500
B6,33.9,0.00146,57100
B7,28.7,0.00564,196000
B8,23.9,0.00179,75100
B9,24,0.0115,383000
B10,28.3,0.00179,63200
B11,52.4,0.00428,81600
B12,56,0.00445,79500
